Assay results: patent US20250326828A1 (STAIDSON BEIJING BIOPHARMACEUTICALS, published 2025)

Tests used:
human GDF15-hFc [1] = target: T1, human GDF15-hFc (human); test: competition ELISA; GFRAL-his coated, antibody titrated against human GDF15-hFc, anti-human IgG-HRP detection
T1 construct: Recombinant hFc-tagged fusion protein expressed in 293F cells
T1 chain: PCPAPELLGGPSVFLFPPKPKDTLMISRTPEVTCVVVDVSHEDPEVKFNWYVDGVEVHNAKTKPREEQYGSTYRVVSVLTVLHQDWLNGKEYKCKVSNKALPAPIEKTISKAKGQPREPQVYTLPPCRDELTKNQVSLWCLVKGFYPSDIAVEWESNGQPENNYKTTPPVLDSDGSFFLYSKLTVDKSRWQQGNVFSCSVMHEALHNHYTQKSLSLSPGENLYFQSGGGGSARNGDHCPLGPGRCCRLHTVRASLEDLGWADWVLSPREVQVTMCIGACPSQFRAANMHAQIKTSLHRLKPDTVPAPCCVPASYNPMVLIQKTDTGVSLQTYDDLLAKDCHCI
Experimental: (§1) The ELISA assay was performed to measure the inhibitory activity of anti-GDF15 antibodies in concentration gradients to block GDF15 binding to GFRAL receptor. IC₅₀ values were used as a measure for neutralizing activity of candidate molecules. Briefly, 96-well plates were coated with 100 ng/well of GFRAL-his protein (SEQ ID NO: 74), and incubated for 1 h at 37° C. The plates were washed with PBST and then blocked for 1 hour at 37° C. with 1% BSA. Gradient-diluted antibodies (dose range 0˜10 μg/ml) was added into each well, immediately followed by equal volume of human GDF15-hFc protein ([…]). After incubation and washing, 100 μl of anti-human IgG secondary antibody (goat anti-human IgG-HRP, Sigma, A8667) was added to each well. Finally, TMB solution (100 μl/well) was added. 2M H₂SO₄ was used to stop the reaction. The OD450 was measured and the binding curve was generated by PRISM to calculate the IC₅₀ value.

human GDF15-his [2] = target: T2, human GDF15-his (human); test: cell-based or functional assay
T2 chain: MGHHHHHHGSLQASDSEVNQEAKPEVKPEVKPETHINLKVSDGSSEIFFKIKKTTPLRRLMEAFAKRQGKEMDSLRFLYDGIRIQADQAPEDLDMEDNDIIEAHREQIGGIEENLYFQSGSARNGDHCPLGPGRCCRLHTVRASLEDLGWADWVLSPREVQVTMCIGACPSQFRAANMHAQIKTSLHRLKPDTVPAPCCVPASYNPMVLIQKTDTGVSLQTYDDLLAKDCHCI

human GDF15-his [3] = target: T2, human GDF15-his; test: cell-based or functional assay
human GDF15-his [4] = target: T2, human GDF15-his; test: ELISA as in Example 2; antibody coated, human GDF15-his titrated
Experimental: (§2) ELISA binding assay: The purified monoclonal antibody was subjected to a binding assay with human GDF15-his protein. The binding assay was designed to characterize the binding activity of the anti-GDF15 antibody. Briefly, a 96-well plate was coated with anti-GDF15 antibody (200 ng/well) and incubated for 1 hour at 37° C. The plates were washed with PBST and then blocked for 1 hour at room temperature using 1% BSA. Then 100 µl/well of gradient-diluted human GDF15-his solution (dose range 0-50 μg/ml) was added into plates. After incubation, 100 μl of anti-his tag secondary antibody (anti-his-HRP (1:2000), Bersee, cat #BHR790) was added to each well. Finally, the TMB solution (100 μl/well) was added. 2M H₂SO₄ was used to stop the reaction. The OD450 was measured, and the binding curves were generated by PRISM software to analyze the affinity of candidate antibodies to human GDF15 antigen, and EC₅₀ value were calculated.

human GDF15-hFc [5] = target: T1, human GDF15-hFc; test: competition ELISA as in Example 2; GFRAL-his coated, antibody titrated against human GDF15-hFc
Experimental: as §1

human GDF15-his [6] = target: T2, human GDF15-his; test: cell-based or functional assay
human GDF15-his [7] = target: T2, human GDF15-his; test: ELISA as in Example 2: plate coated with the antibody, graded human GDF15-his, anti-his-HRP, OD450; the sheet's x axis reads 'Log GDF15 Antibody (nM)'
Experimental: as §2

B1: GDF-R40-rabIg1 (antibody, V domains shown)
VH: QSVKESEGRLVTPGTPLTLTCTASGFSLSSHWMSWVRQAPGKGLEWIGFVSPSGRAYYTSWVNGRFTISKTSTTVDLKITSPTTEDTATYFCARGYTSGLDIWGPGTLVTVSS
VL: AIDMTQTPSPVSATVGGTVTISCQSSKSVVNGDWLAWYQQKPGQPPKLLIYDAATLASGVPSRFKGSGSGTQFTLTISDVQCADAATYYCAGVYNNDSDNGFGGGTEVVVK
notes: Full-length rabbit antibody: rabbit IgG1 heavy constant and rabbit light constant; also called GDF15-R40-rabIg1
IC50 (human GDF15-hFc [1]): 1.63 nM
IC50, 293T-GFRAL/RET-Luc SRE luciferase reporter cells stimulated with human GDF15-his (15 ng/ml) (human GDF15-his [2]): 0.27 nM

B2: hum_R54-1 (antibody, V domains shown)
VH: EVQLLESGGGLVQPGGSLRLSCAVSGFSLSSYDMTWVRQAPGKGLEWIGIISGSGNTYYASWAKGRFTISRDNSKNTVYLQMNSLRAEDTAVYFCARGILVYADYGDHNLWGQGTLVTVSS
VL: DIVMTQSPATLSVSPGERATLSCQASEDIYTNLAWFQQKPGQPPRLLIYAASTLASGIPARFSGSGSGTEFTLTISSLQSEDFAVYFCLGVYTYISAEGAFGQGTKVEIK
notes: Tested in human IgG1 format
IC50, GFRAL/RET reporter cell assay as in Example 2 (human GDF15-his [3]): 0.11 nM
EC50 (human GDF15-his [4]): 142 nM
IC50 (human GDF15-hFc [5]): 1 nM

B3: hum_R54-6 (antibody, V domains shown)
VH: EVQLLESGGGLVQPGGSLRLSCAVSGFSLSSYDMTWVRQAPGKGLEWIGIISSSGNTYYASWAKGRFTISKDSSKNTVYLQMNSLRAEDTAVYFCARGILVYADYGDHNLWGQGTLVTVSS
VL: DIVMTQSPATLSVSPGERATLSCQASEDIYTNLAWFQQKPGQPPRLLIYAASTLASGIPARFSGSGSGTEFTLTISSLQSEDFAVYYCLGVYTYISAEGAFGQGTKVEIK
notes: Tested in human IgG1 format
IC50, GFRAL/RET reporter cell assay as in Example 2 (human GDF15-his [3]): 0.05 nM
EC50 (human GDF15-his [4]): 123 nM
IC50 (human GDF15-hFc [5]): 1.49 nM

B4: hum_R54-7 (antibody, V domains shown)
VH: EVQLLESGGGLVQPGGSLRLSCAVSGFSLSSYDMTWVRQAPGKGLEWIGIISNSGSTYYASWAKGRFTISKDSSKNTVYLQMNSLRAEDTAVYFCARGILVYADYGDHNLWGQGTLVTVSS
VL: DIVMTQSPATLSVSPGERATLSCQASEDIYTNLAWFQQKPGQPPRLLIYAASTLASGIPARFSGSGSGTEFTLTISSLQSEDFAVYYCLGVYTYISAEGAFGQGTKVEIK
notes: Tested in human IgG1 format
IC50, GFRAL/RET reporter cell assay as in Example 2 (human GDF15-his [3]): 0.04 nM
EC50 (human GDF15-his [4]): 111 nM
IC50 (human GDF15-hFc [5]): 1.36 nM

B5: hum_R54-8 (antibody, V domains shown)
VH: EVQLLESGGGLVQPGGSLRLSCAVSGFSLSSYDMTWVRQAPGKGLEWIGIISGSGSTYYASWAKGRFTISKDSSKNTVYLQMNSLRAEDTAVYFCARGILVYADYGDHNLWGQGTLVTVSS
VL: DIVMTQSPATLSVSPGERATLSCQASEDIYTNLAWFQQKPGQPPRLLIYAASTLASGIPARFSGSGSGTEFTLTISSLQSEDFAVYYCLGVYTYISAEGAFGQGTKVEIK
notes: Tested in human IgG1 format
IC50, GFRAL/RET reporter cell assay as in Example 2 (human GDF15-his [3]): 0.03 nM
EC50 (human GDF15-his [4]): 91.7 nM
IC50 (human GDF15-hFc [5]): 1 nM

B6: hum_R54-5 (antibody, V domains shown)
VH: EVQLLESGGGLVQPGGSLRLSCAVSGFSLSSYDMTWVRQAPGKGLEWIGIISGSGNTYYASWAKGRFTISKDSSKNTVYLQMNSLRAEDTAVYFCARGILVYADYGDHNLWGQGTLVTVSS
VL: DIVMTQSPATLSVSPGERATLSCQASEDIYTNLAWFQQKPGQPPRLLIYAASTLASGIPARFSGSGSGTEFTLTISSLQSEDFAVYYCLGVYTYISAEGAFGQGTKVEIK
notes: Tested in human IgG1 format
IC50, GFRAL/RET reporter cell assay as in Example 2 (human GDF15-his [3]): 0.08 nM
EC50 (human GDF15-his [4]): 98.4 nM
IC50 (human GDF15-hFc [5]): 0.89 nM

B7: hum_R54-4 (antibody, V domains shown)
VH: EVQLLESGGGLVQPGGSLRLSCAVSGFSLSSYDMTWVRQAPGKGLEWIGIISGSGSTYYASWAKGRFTISRDNSKNTVYLQMNSLRAEDTAVYFCARGILVYADYGDHNLWGQGTLVTVSS
VL: DIVMTQSPATLSVSPGERATLSCQASEDIYTNLAWFQQKPGQPPRLLIYAASTLASGIPARFSGSGSGTEFTLTISSLQSEDFAVYFCLGVYTYISAEGAFGQGTKVEIK
notes: Tested in human IgG1 format
IC50, GFRAL/RET reporter cell assay as in Example 2 (human GDF15-his [3]): 0.08 nM
EC50 (human GDF15-his [4]): 167 nM
IC50 (human GDF15-hFc [5]): 1.14 nM

B8: hum_R54-2 (antibody, V domains shown)
VH: EVQLLESGGGLVQPGGSLRLSCAVSGFSLSSYDMTWVRQAPGKGLEWIGIISSSGNTYYASWAKGRFTISRDNSKNTVYLQMNSLRAEDTAVYFCARGILVYADYGDHNLWGQGTLVTVSS
VL: DIVMTQSPATLSVSPGERATLSCQASEDIYTNLAWFQQKPGQPPRLLIYAASTLASGIPARFSGSGSGTEFTLTISSLQSEDFAVYFCLGVYTYISAEGAFGQGTKVEIK
notes: Tested in human IgG1 format
IC50, GFRAL/RET reporter cell assay as in Example 2 (human GDF15-his [3]): 0.1 nM
EC50 (human GDF15-his [4]): 156 nM
IC50 (human GDF15-hFc [5]): 0.8 nM

B9: hum_R54-3 (antibody, V domains shown)
VH: EVQLLESGGGLVQPGGSLRLSCAVSGFSLSSYDMTWVRQAPGKGLEWIGIISNSGSTYYASWAKGRFTISRDNSKNTVYLQMNSLRAEDTAVYFCARGILVYADYGDHNLWGQGTLVTVSS
VL: DIVMTQSPATLSVSPGERATLSCQASEDIYTNLAWFQQKPGQPPRLLIYAASTLASGIPARFSGSGSGTEFTLTISSLQSEDFAVYFCLGVYTYISAEGAFGQGTKVEIK
notes: Tested in human IgG1 format
IC50, GFRAL/RET reporter cell assay as in Example 2 (human GDF15-his [3]): 0.07 nM
EC50 (human GDF15-his [4]): 173 nM
IC50 (human GDF15-hFc [5]): 1.24 nM

B10: GDF-R46-rabIg1 (antibody, V domains shown)
VH: SQTVKESGGRLVTPGTPLTLTCTASGFSLSNYYMSWVRQAPGEGLEWIGMISFSGTTHATWAKGRFTISKTSTTVDLKITSPTSEDTATYFCARVVYAGWTYPLGIWGPGTLVTVSS
VL: AQVMTQTPASVSEPVGGTVTIKCQASQSISSVLSWYQQKPGQPPKVLIYEASTLASGVPSRFKGSGSGTDFTLAISDLECADAATYYCQANYDVYNYGNPFGGGTEVVVK
notes: Full-length rabbit antibody: rabbit IgG1 heavy constant and rabbit light constant; also called GDF15-R46-rabIg1
IC50 (human GDF15-hFc [1]): 1.62 nM
IC50, 293T-GFRAL/RET-Luc SRE luciferase reporter cells stimulated with human GDF15-his (15 ng/ml) (human GDF15-his [2]): 0.19 nM

B11: hum_R37-1 (antibody, V domains shown)
VH: EVQLVESGGGLVKPGGSLRLSCAASGFSLSNYYMSWVRQAPGKGLEWIGMISFSGTTYATWAKGRFTISKDSSKNTVYLQINSLKTEDTAVYFCARVVYAGWTYPLGIWGQGTLVTVSS
VL: DIQLTQSPSSLSASVGDRVTITCQASQSISSVLSWYQQKPGKPPKALIYEASILASGVPSRFSGSGSGTDFTLTISSLQPEDFATYYCQANYDVYNYGNPFGGGTKVEIK
notes: Tested in human IgG1 format
IC50 (read off the curve), SRE-luciferase signal in 293T-GFRAL/RET-Luc cells with human GDF15-his (human GDF15-his [6]): ~0.2 nM
IC50 (human GDF15-hFc [5]): 1.74 nM
EC50 (read off the curve) (human GDF15-his [7]): ~50 nM

B12: hum_R37-3 (antibody, V domains shown)
VH: EVQLVESGGGLVKPGGSLRLSCAASGFSLSNYYMSWVRQAPGKGLEWIGMISFSGTTYATWAKGRFTISKDDSKNTVYLQINSLKTEDTAVYFCARVVYAGWTYPLGIWGQGTLVTVSS
VL: DIQLTQSPSSLSASVGDRVTITCQASQSISSVLSWYQQKPGKPPKALIYEASILASGVPSRFSGSGSGTDFTLTISSLQPEDFATYYCQANYDVYNYGNPFGGGTKVEIK
notes: Tested in human IgG1 format
IC50 (read off the curve), SRE-luciferase signal in 293T-GFRAL/RET-Luc cells with human GDF15-his (human GDF15-his [6]): ~0.1 nM
IC50 (human GDF15-hFc [5]): 1.73 nM
EC50 (read off the curve) (human GDF15-his [7]): ~60 nM
